Series [1] deals with T1, human mtSSB (Homo sapiens) (UniProt Q04837).
T1 sequence: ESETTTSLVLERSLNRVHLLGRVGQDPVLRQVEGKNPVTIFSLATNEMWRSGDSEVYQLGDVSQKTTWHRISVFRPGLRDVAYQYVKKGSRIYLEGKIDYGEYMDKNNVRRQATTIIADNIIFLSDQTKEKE
As to the kind of experiment: AFM. The conditions noted are these: Anisotropy: 30 mM HEPES-KOH pH 7.5, 1 mM 2-mercaptoethanol, 5 mM MgCl2, 0.01% NP-40, 50 mM NaCl, 20 nM oligo, 20 C. AFM/DREEM: incubation in 20 mM HEPES pH ….

For series [2], the target named is T2, E. coli SSB (Escherichia coli, UniProt P0AGE0 1-178). Briefly: fluorescence anisotropy; 5 mM MgCl2, 50 mM NaCl; tetramers; Hill coefficient 1.84; Anisotropy: 30 mM HEPES-KOH pH 7.5, 1 mM 2-mercaptoethanol, 5 mM MgCl2, 0.01% NP-40, 50 mM NaCl, 20 nM oligo, 20 C. AFM/DREEM: incubation in 20 mM HEPES pH 7.5.
The target in series [3] is T3, human mtSSB (Homo sapiens, UniProt Q04837 17-148).
T3 sequence: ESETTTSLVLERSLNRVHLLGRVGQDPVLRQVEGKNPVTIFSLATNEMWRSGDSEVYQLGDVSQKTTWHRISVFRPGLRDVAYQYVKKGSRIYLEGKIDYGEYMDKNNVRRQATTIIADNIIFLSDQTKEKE
As to the kind of experiment: fluorescence anisotropy; 5 mM MgCl2, 50 mM NaCl; tetramers; Hill coefficient 2.00; Anisotropy: 30 mM HEPES-KOH pH 7.5, 1 mM 2-mercaptoethanol, 5 mM MgCl2, 0.01% NP-40, 50 mM NaCl, 20 nM oligo, 20 C. AFM/DREEM: incubation in 20 mM HEPES pH 7.5. Background: Polarisation of emitted light reports the rotation of a fluorescent probe.

The target in series [4] is T2, E. coli SSB. Briefly: AFM/DREEM; 100 mM NaCl; 10 mM Mg(OAc)2 in imaging buffer; 35% one strand wrapped, 65% two; Anisotropy: 30 mM HEPES-KOH pH 7.5, 1 mM 2-mercaptoethanol, 5 mM MgCl2, 0.01% NP-40, 50 mM NaCl, 20 nM oligo, 20 C. AFM/DREEM: incubation in 20 mM HEPES pH 7.5.
In series [5] the target is T3, human mtSSB. As to the kind of experiment: AFM/DREEM; 100 mM NaCl; 10 mM Mg(OAc)2 in imaging buffer; 85% one strand wrapped, 15% two; Anisotropy: 30 mM HEPES-KOH pH 7.5, 1 mM 2-mercaptoethanol, 5 mM MgCl2, 0.01% NP-40, 50 mM NaCl, 20 nM oligo, 20 C. AFM/DREEM: incubation in 20 mM HEPES pH 7.5.
Series [6] concerns the molecule itself. Briefly: AFM volume measurement; free mtSSB (8.4 nM tetramers) diluted in 20 mM HEPES (pH 7.5), 100 mM NaCl, deposited on freshly cleaved mica, imaged in air (AC mode); AFM volume converted to molecular weight with a calibration curve.
Series [7] addresses T3, human mtSSB. Briefly: fluorescence anisotropy; 5 mM MgCl2, 50 mM NaCl; tetramers; Anisotropy: 30 mM HEPES-KOH pH 7.5, 1 mM 2-mercaptoethanol, 5 mM MgCl2, 0.01% NP-40, 50 mM NaCl, 20 nM oligo, 20 C. AFM/DREEM: incubation in 20 mM HEPES pH 7.5.
The target of series [8] is T3, human mtSSB. As to the kind of experiment: fluorescence anisotropy; 5 mM MgCl2, 50 mM NaCl; Anisotropy: 30 mM HEPES-KOH pH 7.5, 1 mM 2-mercaptoethanol, 5 mM MgCl2, 0.01% NP-40, 50 mM NaCl, 20 nM oligo, 20 C. AFM/DREEM: incubation in 20 mM HEPES pH 7.5.

T2 sequence (P0AGE0 whole entry): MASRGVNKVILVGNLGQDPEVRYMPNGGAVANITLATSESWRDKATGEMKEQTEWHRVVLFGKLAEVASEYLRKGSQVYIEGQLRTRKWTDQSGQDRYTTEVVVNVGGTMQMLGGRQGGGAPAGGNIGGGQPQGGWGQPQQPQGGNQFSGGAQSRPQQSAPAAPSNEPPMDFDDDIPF

linear 2030-bp DNA with 37-nt ssDNA gap registered a binding signal (KSP/KNSP (gap vs duplex specificity)) in series [1] of 14500.

B1: 5'-fluorescein 90-nt oligonucleotide (ssDNA)
DNA: TAATGCTATCACTATTCGTAGACTTGACCACACCTTGTCAGCTCACGCTCCAAATGAAAGTATAGCTAAACAGGTTATTGACCATATGCA
modifications: fluorescein on 5'-terminal T
As usually defined, the Kd is the constant that tells how readily two partners part at equilibrium. Higher therefore signals lower affinity. Regarding B1, the Kd in the series with E. coli SSB [2] was found to be 25.4 ± 1.3 nM; with human mtSSB [3], 14.7 ± 0.5 nM.

B2: 90-nt oligonucleotide (ssDNA)
DNA: TAATGCTATCACTATTCGTAGACTTGACCACACCTTGTCAGCTCACGCTCCAAATGAAAGTATAGCTAAACAGGTTATTGACCATATGCA
For B2, the binding result with E. coli SSB [4] and in the series with human mtSSB [5] was “binds” throughout.

B3: human mitochondrial single-stranded DNA binding protein (natural protein, UniProt Q04837 17-148, looked up)
chain: ESETTTSLVLERSLNRVHLLGRVGQDPVLRQVEGKNPVTIFSLATNEMWRSGDSEVYQLGDVSQKTTWHRISVFRPGLRDVAYQYVKKGSRIYLEGKIDYGEYMDKNNVRRQATTIIADNIIFLSDQTKEKE
As a reminder, the stoichiometry N is the number of molecules, sites or subunits per partner or assembly. As for B3, in series [6], the “stoichiometry N” value was 4.

As for ATGCTAGCTTGGCTGTGACTTTAAACCTGTCGTGCCAGCT (ssDNA, fluorescein on internal T21) [D1-F 40-nt ssDNA], the Kd with human mtSSB [7] is 1.8 ± 0.9 nM.

B4: D1-F/D2 40-bp dsDNA (dsDNA)
DNA 1: ATGCTAGCTTGGCTGTGACTTTAAACCTGTCGTGCCAGCT
DNA 2: AGCTGGCACGACAGGTTTAAAGTCACAGCCAAGCTAGCAT
modifications: fluorescein on internal T21 of D1
As to B4, the binding result in the series with human mtSSB [8] is given as “no binding”.
